The results in this text go back to patent US20060153798A1.

In the assay the target is growth hormone (GH) receptor (mouse) (UniProt P16882). In words: cell-based or functional assay.

For “recombinant rat growth hormone (from UniProt P01244 27-216) (ligand)”, the GH receptor mRNA expression levels in the liver (quantitative RT-PCR), 60 minutes after 30 µg subcutaneous rGH (% of level prior to administration) turned out to be 65 and the IGF-I-BP3 mRNA expression levels in the liver (quantitative RT-PCR, % of control), 60 minutes after 30 µg subcutaneous rGH was 250 % increase.
